Paper PMC3888430, “Sorcin Links Calcium Signaling to Vesicle Trafficking, Regulates Polo-Like Kinase 1 and Is Necessary for Mitosis” (PLoS ONE, 2014)

What was measured:
Test in all cases: peptide or protein array; ProtoArray human protein microarray (proteins arrayed in duplicate on nitrocellulose coated glass slide, native conditions) probed with 1 µM AlexaFluor 532-A2C sorcin in the presence of either 1 mM EDTA or 1 mM CaCl2
Details in all cases: both partners purified
[1] = target: T1, Aurora A kinase, human, on ProtoArray (human, UniProt O14965 1-403)
T1 construct: Aurora A kinase, human, full length protein of the ProtoArray; source: bought: ProtoArray human protein microarray (Life technologies), individually purified and arrayed
T1 sequence (looked up): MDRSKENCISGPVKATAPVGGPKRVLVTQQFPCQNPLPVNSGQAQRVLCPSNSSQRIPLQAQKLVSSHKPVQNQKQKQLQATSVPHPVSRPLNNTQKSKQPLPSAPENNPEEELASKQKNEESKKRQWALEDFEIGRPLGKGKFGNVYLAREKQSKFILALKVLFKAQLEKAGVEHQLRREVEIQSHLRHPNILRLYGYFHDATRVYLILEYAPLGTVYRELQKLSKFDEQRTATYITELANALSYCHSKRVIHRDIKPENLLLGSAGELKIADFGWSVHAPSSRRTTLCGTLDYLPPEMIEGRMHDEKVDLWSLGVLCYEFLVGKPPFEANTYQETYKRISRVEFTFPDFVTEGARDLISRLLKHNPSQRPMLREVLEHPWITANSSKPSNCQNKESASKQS

[2] = target: T2, Polo-like kinase 1 (PLK1), human, on ProtoArray (human, UniProt P53350 1-603)
T2 construct: Polo-like kinase 1, human, full length protein of the ProtoArray; In the functional row this id stands for purified recombinant PLK1 bought from Cell Signaling Technology (#7728); source: bought: ProtoArray human protein microarray (Life technologies), individually purified and arrayed
T2 sequence (P53350 whole entry): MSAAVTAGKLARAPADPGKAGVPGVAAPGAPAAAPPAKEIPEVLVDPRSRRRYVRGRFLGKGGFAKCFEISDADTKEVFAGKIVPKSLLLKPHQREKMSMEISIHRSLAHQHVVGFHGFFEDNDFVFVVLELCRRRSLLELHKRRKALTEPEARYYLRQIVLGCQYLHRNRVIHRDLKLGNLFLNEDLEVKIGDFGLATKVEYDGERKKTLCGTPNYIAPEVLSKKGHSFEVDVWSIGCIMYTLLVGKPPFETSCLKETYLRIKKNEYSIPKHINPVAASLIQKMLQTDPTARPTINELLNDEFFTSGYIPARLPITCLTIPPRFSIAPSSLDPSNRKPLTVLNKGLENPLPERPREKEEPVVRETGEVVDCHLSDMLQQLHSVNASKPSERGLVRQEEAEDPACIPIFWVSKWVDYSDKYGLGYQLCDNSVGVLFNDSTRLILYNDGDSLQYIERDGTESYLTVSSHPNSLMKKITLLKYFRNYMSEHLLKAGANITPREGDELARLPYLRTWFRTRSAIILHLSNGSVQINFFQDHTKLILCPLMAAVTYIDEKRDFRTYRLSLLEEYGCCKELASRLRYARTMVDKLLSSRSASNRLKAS

[3] = target: T3, Aurora B kinase, human, on ProtoArray (human, UniProt Q96GD4 1-344)
T3 construct: Aurora B kinase, human, full length protein of the ProtoArray; source: bought: ProtoArray human protein microarray (Life technologies), individually purified and arrayed
T3 sequence (Q96GD4 whole entry): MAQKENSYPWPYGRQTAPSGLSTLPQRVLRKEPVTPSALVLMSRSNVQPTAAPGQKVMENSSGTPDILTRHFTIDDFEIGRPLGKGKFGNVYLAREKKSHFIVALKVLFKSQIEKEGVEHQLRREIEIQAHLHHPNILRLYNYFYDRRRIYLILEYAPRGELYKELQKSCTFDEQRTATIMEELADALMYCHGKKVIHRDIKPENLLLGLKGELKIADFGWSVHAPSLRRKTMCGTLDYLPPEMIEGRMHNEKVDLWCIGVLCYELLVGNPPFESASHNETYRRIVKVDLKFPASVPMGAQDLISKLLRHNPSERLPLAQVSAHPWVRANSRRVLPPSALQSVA

[4] = target: T4, Annexin 11, human, on ProtoArray (human, UniProt P50995 1-505)
T4 construct: Annexin 11, human, full length protein of the ProtoArray; source: bought: ProtoArray human protein microarray (Life technologies), individually purified and arrayed
T4 sequence (P50995 whole entry): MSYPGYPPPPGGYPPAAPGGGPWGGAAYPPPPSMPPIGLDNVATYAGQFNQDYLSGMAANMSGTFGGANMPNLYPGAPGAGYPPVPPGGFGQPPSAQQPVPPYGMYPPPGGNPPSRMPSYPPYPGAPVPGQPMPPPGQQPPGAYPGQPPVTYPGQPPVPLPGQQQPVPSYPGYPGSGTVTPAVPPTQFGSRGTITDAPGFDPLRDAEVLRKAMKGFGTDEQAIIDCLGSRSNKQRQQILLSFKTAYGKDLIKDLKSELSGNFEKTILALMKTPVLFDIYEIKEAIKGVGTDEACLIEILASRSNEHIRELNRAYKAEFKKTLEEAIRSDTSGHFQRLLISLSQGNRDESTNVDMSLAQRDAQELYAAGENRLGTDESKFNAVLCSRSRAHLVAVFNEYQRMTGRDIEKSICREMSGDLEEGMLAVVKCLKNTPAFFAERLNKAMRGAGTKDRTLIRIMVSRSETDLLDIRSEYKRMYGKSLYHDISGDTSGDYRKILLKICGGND

[5] = target: T5, CSNK2A2, human, on ProtoArray (human, UniProt P19784 1-350)
T5 construct: CSNK2A2 (casein kinase II subunit alpha'), human, full length protein of the ProtoArray; source: bought: ProtoArray human protein microarray (Life technologies), individually purified and arrayed
T5 sequence (P19784 whole entry): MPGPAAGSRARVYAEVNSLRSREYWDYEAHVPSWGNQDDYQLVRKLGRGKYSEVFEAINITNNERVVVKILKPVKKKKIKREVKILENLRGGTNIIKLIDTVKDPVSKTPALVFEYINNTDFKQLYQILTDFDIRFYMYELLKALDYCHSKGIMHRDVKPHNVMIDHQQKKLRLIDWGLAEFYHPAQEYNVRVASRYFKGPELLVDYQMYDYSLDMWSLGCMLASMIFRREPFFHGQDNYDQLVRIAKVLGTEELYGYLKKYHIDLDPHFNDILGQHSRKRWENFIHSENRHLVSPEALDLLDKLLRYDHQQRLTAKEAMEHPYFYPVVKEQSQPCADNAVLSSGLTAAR

[6] = target: T6, CSNK2A1, human, on ProtoArray (human, UniProt P68400 1-391)
T6 construct: CSNK2A1 (casein kinase II subunit alpha), human, full length protein of the ProtoArray; source: bought: ProtoArray human protein microarray (Life technologies), individually purified and arrayed
T6 sequence (P68400 whole entry): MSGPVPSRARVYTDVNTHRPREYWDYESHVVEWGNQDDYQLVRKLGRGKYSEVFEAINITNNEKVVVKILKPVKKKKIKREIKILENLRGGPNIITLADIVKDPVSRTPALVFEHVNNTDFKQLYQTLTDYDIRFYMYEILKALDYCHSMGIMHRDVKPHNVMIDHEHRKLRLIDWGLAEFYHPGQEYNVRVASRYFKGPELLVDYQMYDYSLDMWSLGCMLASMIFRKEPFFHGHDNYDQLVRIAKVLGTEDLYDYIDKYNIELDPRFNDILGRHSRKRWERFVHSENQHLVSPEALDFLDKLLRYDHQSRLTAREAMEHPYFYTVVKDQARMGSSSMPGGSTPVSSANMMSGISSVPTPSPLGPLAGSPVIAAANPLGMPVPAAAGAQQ

binding result [1]: binds
fold increase of the interaction with 1 mM calcium against EDTA [2]: 1.5 fold
binding result [3]: binds
binding result [4]: binds
binding result [5]: binds
binding result [6]: binds
B1: AlexaFluor 532-A2C sorcin (natural protein, human)
chain: MCYPGHPGAGGGYYPGGYGGAPGGPAFPGQTQDPLYGYFAAVAGQDGQIDADELQRCLTQSGIAGGYKPFNLETCRLMVSMLDRDMSGTMGFNEFKELWAVLNGWRQHFISFDTDRSGTVDPQELQKALTTMGFRLSPQAVNSIAKRYSTNGKITFDDYIACCVKLRALTDSFRRRDTAQQGVVNFPYDDFIQCVMSV
modifications: AlexaFluor 532 C5-maleimide on thiol groups (A2C mutant made for the conjugation)
notes: In the functional row this id stands for unlabelled human wt sorcin (HS) from the same expression system; also called A2C-sorcin-AlexaFluor 532 maleimide; source: E. coli BL21(DE3), purified according to Meyers et al; labelled with AlexaFluor 532 C5-maleimide
